Experimental data taken from article PMC5470874.

Tested on: Matrin 3 (endogenous, HCT116 nuclear extract) (Homo sapiens (HCT116))
Assay: pull-down + mass spectrometry
Conditions: rMatrin 3 pulldown: 25 mM Tris-HCl pH 7.5, 150 mM KCl, 0.1% Triton X-100, 100 ug/ml BSA, 2 mM DTT, 5% glycerol, room temperature, 2 hr

Question: Which binding signal (fold over Bi-LUC) (DOXO-treated nuclear extract) does the source give for Bi-PINCR (full-length PINCR transcript) here?
Answer: Its binding signal (fold over Bi-LUC) is 16.

Question: What about the binding signal (fold over Bi-LUC) (untreated nuclear extract) of the same substance?
Answer: Its binding signal (fold over Bi-LUC) is 8.
